Stoichiometry N data for one substance are collected here from PMC3778281.

The target of the assay is F8–TNF (murine). As to the kind of experiment: SEC. Background: In gel filtration, larger molecules generally elute earlier.

As a reminder, the stoichiometry N is a count of units in the complex or per binding partner. Take F8–TNF: the stoichiometry N was 3.
